What all share (assay): SPR, ratio of KD to KD of WT
In general terms: In SPR one partner is held on a chip, and binding of the other changes the refractive index at the surface.

One assay deals with T1, FVII(a) variant P251A (human, UniProt P08709 61-466).
T1 construct: hFVII alanine variant in cell culture supernatant
T1 sequence: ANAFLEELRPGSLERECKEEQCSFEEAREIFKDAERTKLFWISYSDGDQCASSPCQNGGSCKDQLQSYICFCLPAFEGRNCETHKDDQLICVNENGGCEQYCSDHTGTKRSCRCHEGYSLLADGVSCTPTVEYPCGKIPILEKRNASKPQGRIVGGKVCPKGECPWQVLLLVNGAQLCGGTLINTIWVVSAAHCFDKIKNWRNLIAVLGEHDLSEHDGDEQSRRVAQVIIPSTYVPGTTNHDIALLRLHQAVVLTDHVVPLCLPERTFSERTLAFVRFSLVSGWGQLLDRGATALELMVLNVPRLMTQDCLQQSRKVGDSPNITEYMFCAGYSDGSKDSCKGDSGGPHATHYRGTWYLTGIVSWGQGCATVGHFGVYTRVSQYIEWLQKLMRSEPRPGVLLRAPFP
The protocol:
(§1) The running buffer was prepared by diluting 10-fold the 10×HBS-P buffer (supplied by GE Healthcare) and supplemented with 1 mg/ml BSA and 5 mM CaCl2 to give 10 mM HEPES, 150 mM NaCl, 0.05% v/v Polysorbate 20, pH 7.4, 5 mM CaCl2, 1 mg/ml bovine serum albumin (BSA). […] Regeneration of the chip was achieved using 10 mM HEPES, 150 mM NaCl, 20 mM EDTA, 0.05 v/v Polysorbate 20, pH 7.4. Binding data were analysed according to a 1:1 Kinetic model and steady state analysis using BiaEvaluation 4.1 supplied by the manufacturer (Biacore AB, Uppsala, Sweden). Wherever possible, ka, kd and KD values from 1:1 kinetic fitting model are reported. […] An amino acid residue is considered a hot-spot residue if substitution of that amino acid residue with alanine results in an affinity reduction of ten (10) fold or more relative to the wild type.

A further assay has as its target T2, FVII(a) variant N184A (human, UniProt P08709 61-466).
T2 construct: hFVII alanine variant in cell culture supernatant
T2 sequence: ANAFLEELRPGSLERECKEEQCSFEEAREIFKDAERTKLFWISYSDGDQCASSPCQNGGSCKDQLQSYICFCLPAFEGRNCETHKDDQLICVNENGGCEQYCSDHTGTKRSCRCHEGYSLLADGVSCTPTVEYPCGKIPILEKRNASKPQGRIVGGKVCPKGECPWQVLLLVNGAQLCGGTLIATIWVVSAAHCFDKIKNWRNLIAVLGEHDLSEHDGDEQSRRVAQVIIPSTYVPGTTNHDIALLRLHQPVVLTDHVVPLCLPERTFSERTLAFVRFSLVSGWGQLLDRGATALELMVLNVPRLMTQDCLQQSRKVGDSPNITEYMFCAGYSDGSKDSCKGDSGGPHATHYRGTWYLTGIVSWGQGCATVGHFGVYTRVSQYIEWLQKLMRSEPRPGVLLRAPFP
Here is the method: as §1

The target in another assay is T3, FVII(a) variant S119A (human, UniProt P08709 61-466).
T3 construct: hFVII alanine variant in cell culture supernatant
T3 sequence: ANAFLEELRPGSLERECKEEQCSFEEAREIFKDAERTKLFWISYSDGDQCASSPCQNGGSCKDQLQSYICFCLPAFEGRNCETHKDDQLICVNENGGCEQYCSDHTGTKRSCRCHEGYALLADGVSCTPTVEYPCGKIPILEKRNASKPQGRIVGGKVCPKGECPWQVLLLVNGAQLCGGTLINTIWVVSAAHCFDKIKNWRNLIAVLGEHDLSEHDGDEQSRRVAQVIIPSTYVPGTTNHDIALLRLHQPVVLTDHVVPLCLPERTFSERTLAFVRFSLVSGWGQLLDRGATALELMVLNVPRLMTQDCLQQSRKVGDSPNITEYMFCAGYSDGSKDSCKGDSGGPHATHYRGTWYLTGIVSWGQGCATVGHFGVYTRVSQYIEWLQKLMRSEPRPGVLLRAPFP
The protocol:
as §1

The target in a further assay is T4, FVII(a) variant E116A (human, UniProt P08709 61-466).
T4 construct: hFVII alanine variant in cell culture supernatant
T4 sequence: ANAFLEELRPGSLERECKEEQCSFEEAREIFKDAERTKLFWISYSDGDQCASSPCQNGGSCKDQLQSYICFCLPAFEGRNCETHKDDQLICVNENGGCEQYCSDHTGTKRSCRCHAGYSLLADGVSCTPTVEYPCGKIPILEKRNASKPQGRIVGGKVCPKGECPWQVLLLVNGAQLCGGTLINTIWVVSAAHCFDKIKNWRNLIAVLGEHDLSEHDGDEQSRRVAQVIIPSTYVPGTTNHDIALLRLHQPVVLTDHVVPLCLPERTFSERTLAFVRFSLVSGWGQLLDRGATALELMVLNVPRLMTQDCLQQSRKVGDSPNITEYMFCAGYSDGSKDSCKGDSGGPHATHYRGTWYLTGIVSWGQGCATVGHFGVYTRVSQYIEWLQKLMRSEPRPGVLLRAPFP
Here is the method:
as §1

In a further assay the target is T5, FVII(a) WT (human, UniProt P08709 61-466).
T5 construct: also called wild type human FVII(a)
T5 sequence: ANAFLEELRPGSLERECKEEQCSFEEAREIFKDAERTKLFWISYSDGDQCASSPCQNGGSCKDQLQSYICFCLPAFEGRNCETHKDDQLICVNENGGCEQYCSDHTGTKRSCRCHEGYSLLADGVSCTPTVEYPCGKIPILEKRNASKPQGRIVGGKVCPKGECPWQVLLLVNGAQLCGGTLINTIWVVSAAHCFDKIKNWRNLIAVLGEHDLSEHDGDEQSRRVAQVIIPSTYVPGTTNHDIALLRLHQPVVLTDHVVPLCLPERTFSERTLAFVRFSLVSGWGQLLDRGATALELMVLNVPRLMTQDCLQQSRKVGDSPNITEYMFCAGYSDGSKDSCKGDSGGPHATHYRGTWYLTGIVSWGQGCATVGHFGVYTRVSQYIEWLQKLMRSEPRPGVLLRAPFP
Here is the method: as §1

We go through 1 molecule from patent US20220064329A1 (Novo Nordisk, published 2022).

B1: mAb0842(OA) (antibody, human IgG4 S228P, kappa)
heavy: QVQLQESGPGLVKPSQTLSLTCTVSGYSISSDSAWSWIRQPPGKGLEWIGYIQYSGSTNYNPSLKSRVTISRDTSKNQFSLKLSSVTAADTAVYYCARSVNYYGNSFAVGYWGQGTLVTVSSASTKGPSVFPLAPCSRSTSESTAALGCLVKDYFPEPVTVSWNSGALTSGVHTFPAVLQSSGLYSLSSVVTVPSSSLGTKTYTCNVDHKPSNTKVDKRVESKYGPPCPPCPAPEFLGGPSVFLFPPKPKDTLMISRTPEVTCVVVDVSQEDPEVQFNWYVDGVEVHNAKTKPREEQFNSTYRVVSVLTVLHQDWLNGKEYKCKVSNKGLPSSIEKTISKAKGQPREPQVYTLPPSQEEMTKNQVSLSCAVKGFYPSDIAVEWESNGQPENNYKTTPPVLDSDGSFFLVSRLTVDKSRWQEGNVFSCSVMHEALHNHYTQKSLSLSLGK
light: EIVLTQSPATLSLSPGERATLSCRASQGISDYLHWYQQKPGEAPRLLIKYTSQPATGIPARFSGSGSGTDFTLTISSLEPEDFAVYYCQNGHSFPLTFGQGTKLEIKRTVAAPSVFIFPPSDEQLKSGTASVVCLLNNFYPREAKVQWKVDNALQSGNSQESVTEQDSKDSTYSLSSTLTLSKADYEKHKVYACEVTHQGLSSPVTKSFNRGEC
chain: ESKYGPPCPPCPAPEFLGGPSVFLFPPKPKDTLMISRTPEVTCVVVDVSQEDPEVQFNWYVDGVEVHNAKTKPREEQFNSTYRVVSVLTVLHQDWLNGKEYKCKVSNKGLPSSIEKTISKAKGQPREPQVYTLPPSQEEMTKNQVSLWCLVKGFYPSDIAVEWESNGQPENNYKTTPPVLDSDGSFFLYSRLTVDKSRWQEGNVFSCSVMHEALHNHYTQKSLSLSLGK
notes: also called monovalent humanized 11F2 antibody; one-armed anti-FVII(a) antibody
In the case of B1, the “Fold diff (Variant/WT)” value with FVII(a) variant P251A came out at 2.8 fold; in the assay with FVII(a) variant N184A, 6.3 fold; in the assay with FVII(a) variant S119A, 1 fold; in the assay with FVII(a) variant E116A, 1.6 fold; in the assay with FVII(a) WT, 1 fold.
